Laboratory results: publication PMC5778138, “Interaction of the Morphogenic Protein RodZ with the Bacillus subtilis Min System” (Frontiers in Microbiology, 2017)

Molecular target: T1, His-tagged cytosolic part of MinJ, fluorescently labeled (B. subtilis, labeled with the amine-reactive red fluorescent dye NT-647 NHS)
T1 chain: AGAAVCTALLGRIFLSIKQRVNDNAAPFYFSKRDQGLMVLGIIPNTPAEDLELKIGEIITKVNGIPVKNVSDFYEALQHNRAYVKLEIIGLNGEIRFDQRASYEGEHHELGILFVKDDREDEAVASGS
Test: MST; NT-647-labeled His-cyt-MinJ at 34 μM, cyt-RodZ titrated from 6.7 nM to 221 μM in 16 capillaries; Monolith NT.115; the methods call the Kd preliminary
Conditions: both partners purified

- Kd: 5.1 ± 0.6 µM
B1: His-tagged cytosolic part of RodZ (domain or fragment)
chain: VTELGIRLKEAREEKAMSLDDLQAATKIQKRYLTALEEGNYDIIPGKFYVRAFIKQYAEAVGLDADQLFEEHKKDIPNTYHDDVSEKISGMNLQKEMPKPASKALE
